Experimental data: the nanobody polyreactivity screen of Harvey et al. (2022)

Experiment: yeast display, Sf9 membrane polyspecificity reagent, FACS + sequencing; frameworks hold sequencing errors
Method in brief: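 Sorting gates, low and high (top ~1%), were placed on anti-HA fluorescence to track expression and on streptavidin fluorescence to track reagent binding. A clone's polyreactivity label is taken from the gate it came out of. The reagent was 10% biotinylated, detergent-solubilized Sf9 membrane, applied for 1 hour at 4 °C to galactose-induced yeast display cells.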

Row | Sequence | polyreactivity (PSR sort gate)
1 | QVQLVESGGGLVQAGGSLPLSCAASGSTFNKYTMGWSRQPPGKERELVAAITSGDSTYYADSVKGRFTISRDNAKNTVYLQMNSLKPDDTAVYYCAKSLRAYRHVIYGKPFYSWGQGTQVTVSS | low polyreactivity
2 | QVQLVESGGGLVQAGGSLRLSCAASGFTLGSKVMGWYRQAHGKERELVAGISQSGGRTFYADSVKGRFTISRDNAKNTVYLQMNSLKPEDTAVYYCAAGYYPYWGQGTLVTVSS | low polyreactivity
3 | QVQLVESGGGLVQAGGSLRLSCAASGFTIQRYAMGWYRQAPGKERELVAAITSGGSTYYADSVKGRFTISRDNAKNTVYLQMNSLKPEDTAVYYCATRAVWSSWGRRYDSWGQGTQVTVSS | high polyreactivity
4 | QVQLVESGGRLVQAGGSLRLSCAPSGRIFWAYAMGWYRPAPGKERELVAAITSGGSTYYADSVKGRFTISRDNAKNTVYLQMNSLKPEDTAVYYCAVGSKWVDDSPEDVYWGQGTQVTVSS | low polyreactivity
5 | QVQLVESGGGLVQAGGSLRLSCAASGSTFTPYTMGWYRKAPGKETELVAAIRYGGGSTYYADSVKGRFTISRDNAKNTVYLQMNSLKPEDTAVYYCAVDSFYSGGTYDSDGYWGQGTQVTVSS | low polyreactivity
6 | QVQLVESGGGLVQAGGSLRLSCAASGRIFVKNAMGWYRQAPGKERELVAAISSSSGSTYYADSVKGRFTISRDNAKNTVYLQMNSLKPEDTAVYYCATVRWYYSRPRPTTAYGYWGQGTQVNVSS | high polyreactivity
7 | QVQLVESGGGLVQAGGSLRLSCAASGSTFEQYAMGGYRQAPGKEKELDAAISGSGTRTYYADSVKGRFTISRDNAKNTVYLQMNSLKAEDTAVYYCAARFSYPAILQAYYHWGQGTQVTVSS | high polyreactivity
8 | QVQLVESGGGLVQAGGSLRLSCAASGLTFDWYTKGWSRQAPGKERELVATINSGGSTDYADSVKGRFTISRDNAKNTVYLQLNSLKPEDTAVYYCNAEYGYSGVGDDYWGQGTQVTVSS | low polyreactivity
9 | QVQLVESGGGLVQAGGSLRLSCAASGLIFYRYAMGWYRQAPGTERELVAVITRSGCNTNYADSVKGRFTISRDNAKNTVYLQMNSLKPEDTEVYYCDTRGIWKKVPYYYWGQGTQVTVSS | low polyreactivity
10 | QVQLVESGGGLVQAGGSLRLSCAASGSTFGRYALGWYRQAPGKEREFVAAISWSGGSTYYADSVKGRFTISRDNAKNTVYLQMNSLKPEDSAVYYCAASYIYQSSWYHRMYYWGQGTQVTVSS | high polyreactivity
11 | QVQLVESGGGLVEGGGSLRLSCAASGFTFGRYTMGWYRQATGKERELVAAISWSGGSTYYADSVKGRFTISRDNAKNTVYLQLNSLKQEDTAVYNCATRLKSVSGGYNYWGQGTQVTVSS | high polyreactivity
12 | QVQLVESGGCLVQAGGSLRLSCAASGRTFSLYAMGWYRQEPGQERELVASITDSTGGSTYYADSVKGRFTLSRDNAKNTVYLQMNSLKPEDTAVYYCAAQDYQYSDYQWWFGYWGLGTQVTVSS | low polyreactivity
13 | QVQLVESGGGLVQAGGSLRLSCAASGFTLDWYVMGWYRQAPGKERELVAAISSSGGRTYYADSVKGRFTISRDNAKNTVSLQLNSLKPEDTAVYYCAARNKYGGYPYGYDYWGQGTQVTVSS | high polyreactivity
14 | QVQLVESGGGLVQAGGSLRLRCAAAGSIFKLNAMGWYRQAPGKERELVAVIYKSAGRTYYADSVKGRFTISRDNAKNTVYLQMNSLKTEDTAVYYCNAVSKLAVNLDYWGQGTQVTVSS | high polyreactivity
15 | QVQLVESGGALVQAGGSLRLSCAASGSIFYKYTMGWYRQAPGKERELVAAISRSGGSTYYADSVKGRFTISRDNAKNTVYLQMNSLKTEDTAVYYCATTGRVPGEYWGQGTQVTVSS | high polyreactivity
16 | QVQLVESGGGLVQAGGSLRLSCAASGSIFGKYAMGWYRQAPGKERELVAAITWSGGSTRYADSVKGRFTISRDNAKNTVYLQMNSLKPEDTAVYYCAAPSTESKYYYWGQGTQVTVSS | high polyreactivity
17 | QVQLVESGGGLVQAGGSLRLSCAASGSTILYNTMGWYRQAPGKERELVATITSRGDRTYYADSVKGRFTISRDNAKNTVYLQMNSLKPEDTAVDYCAADRTDFWPYDYWGQGTQVTVSS | low polyreactivity
18 | QVQLVESGGGLVQAGGSLRLICAASGSIFRKNAMGWYRQAPGKERELVAAITGTGRTTYADSVMGRFTISRDNAKNTVYLQRNSLKPEDTAVYYCAADVNYYQHRLYYWGQGTQVTVSS | low polyreactivity
19 | QVQLVESGGGLVQAGGSLRLSCAASGSTRRYAMGWYRQAPGKERELVAAISSRGGSTYYADSVKGRFTISRDNAKNTVYLQMNSLKPEDTAVYYCAARTTRGPTFGYWGQGTQVTVSS | high polyreactivity
20 | QVLLQESGGGLVQAGGSLRLSCEAIGNIFSAGGMGWYRQAPVNERELVAGIGTGTSTNYAESVKGRFTISRDNAKNTVYLQMNSLNPEDTAVYYCAAAYYSGLSHWYWGQGTQVTVSS | low polyreactivity
21 | QVQLVESGGGLVQAGGSLRLSCAASGITFLNYAMGWYRQAPGKERELVAAISWSGGRTYYADSVKGRFTISRDNGKNTVYLQMNSLKPEDTAVYYCAADRGVNSYGYWGQGTQVTVSS | high polyreactivity
22 | QVQLVESGGGLVQAGGSLRLSCAASGIIFRSYAMGWYRQAPGKERELVAGISRRGGSTYYADSVKGRFTISRDNAKNTVYLQMNSLKPEDTAVYYCAKEVAYKPTGYDYWGQGTQVTVSS | high polyreactivity

Row | Sequence | polyreactivity (PSR sort gate)
23 | QVQLVESGGGLVQAGGSLRLSCAASGSTFRRNAMGWYRQAPGKERELVAAITSTDSTYYADSVKGRFTISRDNAKNTVYLQMNSLKPEDTAVYYCAKGYWWGGEMGYWGQGSQVTVSS | low polyreactivity
24 | QVQLVESGGGLVQAGGSLRLSCAASGRIFQRNAMGWYRQAPGKERELVAAITSTGVRTYYADSVKGRFTISRDNAKNTVYLQMNSLKPEDTAVYYCAVRGERRYIYAYWGQGTQVTVSS | high polyreactivity
25 | QVQLVESGGGLVQAGGSLRLSCAASGYTFAYNAMGWYRQAPGKERELVAVITWSGDSTYYADSVKGRFTISRDNAKNTVYLQMNSLKPEDTAVYYCAAQVDRWKGREHDYWGQGTQVTVSS | low polyreactivity
26 | QVQLVESGGGLVQAGGSLRLSCAASGFTFYANAMGWYRQAPGKERELVAAISRGVSTTYADSVKGRFTISRDNAKNTVYLQMNRLKPEDTAVYYCAADGNVIAQGYDYWGQGTQVTVSS | low polyreactivity
27 | QVQLVESGGGLVQAGGSLRLSCAASGITFPRYVMGWYRQAPGKEREFVAAINYSGGRTYYADSVKGRFTISRDNAKNTVYLQMKSLKPEDTAVYYCAVDLHVWPFWFDYWGQGTQVTVSS | high polyreactivity
28 | QVQLVESGGGLVQAGGSLRLSCASSGFTFTLYARGWYRQAPGKEWELVAAINRSGGRTYYADSVKGRFTISRDNAKNTVYLQMNSLKPEDTAVYYCNKYPWPNYYDGEYDYWGQGTQVTVSS | high polyreactivity
29 | QVQLVESGGGLVQAGGSLRLSCAASGFNYSQYAMGWYRQAPGKERELVAAITTTGGSTYYADSVKGRFTISRDNAKNTVYLQMNSLKPDDTAVYYCAARYVRTVRGGYWGQGTQVTVSS | high polyreactivity
30 | QVQLVESGGGLVQAGGSLRLSCAASGIIFYRYAMGWYRQAPGKERELVAAINTSGGRTYYADSVKGRFTISRDNAKNTVYLQMNSLKPEDTAVYYCAAYYSPVGFQYDYWGQGTQVTVSS | high polyreactivity
31 | QVQLVESGGGLVHAGGSLRLSSAASGRTFKVYAMGWYRQAPGKERELVAAITGGGSTNYADSVKGRFTISRDNAKNTVYLQMYSLKPEDTAVYYCNARYYYRLVKWSRFSSYDYWGQGTQVTVSS | low polyreactivity
32 | QVQLQESGGGLVQAGGSQRLSCAASGSISILQSMRWYRQAPGKERELVAGINWGATTYYADSVKGRLTSCRDYAKNTVYLEMNSLNPEDTAVYYCAVPTYYTYPLLYWGQGTQVTVSS | low polyreactivity
33 | QVQLVESGGGLVQAGVSLRLSCAASGRIFGYNDMGWYRQAPGKERELVAAINWTGGSTYYADSVKGRFTISRDNAKNTVYLQMNSLKPEDTAVYYCNADARTKWVQTHTDFITDYDYWGQGTQVTVSS | low polyreactivity
34 | QVQLVESGGGLVQAGGSLRLSCAASGRIFGWYAMGWYRQAPGKERELVAAISRGGGSTYYADSVKGRFTISRDNAKNTVYLQMNSLKPEDTAVYYCARDGGSLSHYHVGTGKFGYWGQGTQVTVSS | low polyreactivity
35 | QVQLVESGGGLVQAGGSLRLSCAASGRILPWYAMGWYRQAPGKERELVAGISSNGGSTYYADSVKGRFTISRDNAKNTVYLQMNSLKPEDSAVYYCAALFWYWRHYPSDYWGQGTQVTVSS | high polyreactivity
36 | QVQLVESGGGLVQAGGSLRLSCAASGSILSINGMGWYRQAPGKERELVATIDGSDGTTFYADSVKGRFTISRDNAKNTVYLQMNSLKPEDTAVYYCAAENFWQTKEYDYWGQGTQVTVSS | low polyreactivity
37 | QVQLVESGGGLVQAGGSLRLSCAASGSTFYHNVMGWYLQAPGKERELVASIDTGDSTNYADSVKGRFTISRDNAKNTVYLQMNSLKPEDTAVYYCNADSYPALNKRGYDYWGQGTQVTVSS | low polyreactivity
38 | QVQLVESGGGLVQAGGSLRISCAPSGIIFTDYAMGWYRQAPVKERELVAAISSGGGYTYYADSVKGRFTISRDNAKNTVYLQMISLKPEDTAVYYCAAEGYLISGAGDYLYDYYLGQGTQVTVSS | high polyreactivity
39 | QVQLVESGGGLVQAGGSLRLSCAASGSSVYSYAMGWYRQAPGKERELVAAISWRGGSTYYADSVKGRFTISRDNAKNTVYLQMNSLKPEDTAVYYCAAYYYTGPTTVESDYWGQGTQVTVSS | high polyreactivity
40 | QVQLVESGGGLVQAGGSLRLSCAASGAIFGAITMGWYREAPGKERELVAAISKRGGSTYYADSVKGRFTSSRDNAKNTVYLQMNSLKPEDTAVYYCNATPRYLRQYVDPNWGYDYWGQGTQVTVSS | low polyreactivity
41 | QVQLVESGGGLVQAGGSLRLSCAASGSIFQGYAMGWYRQAPGKERELVAAITYSGGRTYYADSVKGRFTISRDNAKNTVYLQMNSLKPEDTAVYYCAALTRRVKKYDYWGQGTQVTVSS | high polyreactivity
42 | QVQLVESGGGLVQAGGSLRLSCAASGIIFSIYVMGWYRQAPGKERELVAAISSNGGSTYYADSVKGRFTISRDNAKNTVYLQMNSLKPEDTAVYYCAAVSRSHYYYWGQGTQVTVSS | high polyreactivity
43 | QVQLVESGGGLVQAGGSLRLSCAASGRIFYINAMGWYRQAPGKERELVAAISGSGGDTYYADSVKGRFTISRDNAKNTVYLQMNSMKPEDTAVYYCGAEVYTWGQGTQVTVSS | low polyreactivity
